Target: TRPA1 tagged with V5 and 6x histidine in the C terminus (UniProt Q8BLA8)
Test: pull-down; nickel bead (Ni-NTA) pull-down of TRPA1-V5-His from HEK293 cells; IQGAP1 detected with anti-IQGAP1; cells untreated or treated with AITC (400 uM), AITC with HC-030031 (10 uM), AITC in Ca2+-free solution, or forskolin

UniProt Q8BLA8, sequence (Q8BLA8 whole entry): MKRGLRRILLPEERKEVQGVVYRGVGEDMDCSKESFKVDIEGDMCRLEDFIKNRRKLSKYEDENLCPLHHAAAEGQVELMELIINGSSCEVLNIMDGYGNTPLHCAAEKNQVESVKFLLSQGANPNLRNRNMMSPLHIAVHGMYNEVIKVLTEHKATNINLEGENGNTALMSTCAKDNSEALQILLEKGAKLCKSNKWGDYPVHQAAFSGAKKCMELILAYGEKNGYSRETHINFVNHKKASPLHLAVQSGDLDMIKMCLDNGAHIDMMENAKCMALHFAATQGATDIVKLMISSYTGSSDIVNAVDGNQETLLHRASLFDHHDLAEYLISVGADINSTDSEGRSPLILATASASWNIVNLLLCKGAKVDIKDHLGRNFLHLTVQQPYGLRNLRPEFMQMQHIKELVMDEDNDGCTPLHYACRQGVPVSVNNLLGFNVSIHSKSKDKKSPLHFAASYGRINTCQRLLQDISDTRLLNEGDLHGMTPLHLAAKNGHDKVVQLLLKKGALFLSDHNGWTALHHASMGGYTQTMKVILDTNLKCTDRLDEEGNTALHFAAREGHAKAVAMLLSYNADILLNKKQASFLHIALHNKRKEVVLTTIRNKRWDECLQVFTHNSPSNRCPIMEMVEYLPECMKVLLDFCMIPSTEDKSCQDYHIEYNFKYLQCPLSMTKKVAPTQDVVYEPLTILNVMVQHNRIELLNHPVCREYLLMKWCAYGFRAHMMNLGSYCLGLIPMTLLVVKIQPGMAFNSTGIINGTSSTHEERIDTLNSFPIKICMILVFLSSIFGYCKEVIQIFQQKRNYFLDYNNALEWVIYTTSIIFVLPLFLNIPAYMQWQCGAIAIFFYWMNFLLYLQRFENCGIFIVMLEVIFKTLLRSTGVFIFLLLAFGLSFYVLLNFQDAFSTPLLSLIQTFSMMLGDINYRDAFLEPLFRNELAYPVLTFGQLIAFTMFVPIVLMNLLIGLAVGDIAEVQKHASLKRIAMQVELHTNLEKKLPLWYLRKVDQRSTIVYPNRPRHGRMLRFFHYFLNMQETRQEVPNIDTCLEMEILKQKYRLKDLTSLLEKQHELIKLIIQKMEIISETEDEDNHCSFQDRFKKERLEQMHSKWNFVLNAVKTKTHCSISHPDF

Row | relative band density (basal, against wild-type IQGAP1 basal = 1.0) (relative to the first band) | Substance
1 | 0.53 | Cdc42 binding region (M1054-K1077) deleted IQGAP1 (from UniProt P46940 1-1657) (natural protein)
2 | 1.61 | IQ motif (L700-Q905) deleted IQGAP1 (from UniProt P46940 1-1657) (natural protein)
